According to US7053177B1, “Random peptides that bind to gastro-intestinal tract (GIT) transport receptors and related methods” (Cytogen Corporation, priority 1997, dated 2006):
Ends that are not written are not given here. Peptide text beside a SMILES is read from it. * marks the point of attachment. Dansyl = CN(C)c1cccc2c(S(=O)(=O)*)cccc12

T1: recombinant hPEPT1 receptor domain (human PEPT1, amino acid residues 391-571), His-tag fusion protein (human, UniProt P46059 391-571)
T1 construct: purified under denaturing conditions; coated on plates
T1 sequence: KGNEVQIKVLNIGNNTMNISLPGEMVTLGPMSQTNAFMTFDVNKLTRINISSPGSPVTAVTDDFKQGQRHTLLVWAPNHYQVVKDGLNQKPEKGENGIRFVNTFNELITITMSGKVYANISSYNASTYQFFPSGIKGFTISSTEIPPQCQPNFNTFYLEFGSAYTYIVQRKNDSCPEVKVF

B1: phage PAX17 (peptide)
peptide: SQVDSFRNSFRWYEPSRALCHGCGKRDTSTTRIHNSPSDSYPTR
modifications: cysteine pairing not given here; also: displayed as N-terminal pIII fusion on M13 phage
notes: M13 phage displaying this insert as N-terminal pIII fusion; whole phage in the ELISA; not shown: M13 phage particle / pIII display carrier (and vector flanks)
B2: phage SNiAX2 (peptide)
peptide: SDSDGDHYGLRGGVRCSLRDRGCGLALSTVHAGPPSFYPKLSSP
modifications: cysteine pairing not given here; also: displayed as N-terminal pIII fusion on M13 phage
B3: phage SNiAX6 (peptide)
peptide: RTTTAKGCLLGSFGVLSGCSFTPTSPPPHLGYPPHSVN
modifications: cysteine pairing not given here; also: displayed as N-terminal pIII fusion on M13 phage

Experiments:
[1] = tested on: rat gastro-intestinal tract (closed loop); experiment: Transport of preselected phage libraries in rat closed loop, detected by oligonucleotide hybridization/autoradiography; details: in words
Experimental: Four preselected phage libraries, GI-D2H, GI-hSI, GI-HPT1 and GI-hPEPT1, were constructed by pooling phage previously selected by screening random phage display libraries D38 and DC43 using the HPT1, HPEPT1, D2H and hSI receptor or binding sites located in the GIT.
In particular, phages selected in vitro to each receptor or binding site located in the GIT were amplified in E. coli, PEG-precipitated, resuspended in TBS and the titer of each phage sample was determined by plaquing in E. coli as described above. […] Using the in situ loop model described above, 0.5 ml of preselected phage library solution was injected into the tied-off portion of the duodenum/jejunum. Blood was collected into heparinized tubes from the portal vein at 0, 15, 30, 45 and 60 minutes. A blood sample was taken from the systemic circulation at the end of the experiment. Similarly, the portion of the duodenum/jejunum used for phage injection was taken at the end of the experiment.
Thirty microliters of the collected portal blood (neat and 10^−2, 10^−1, 10^−6 dilutions) was added to 30 μl E. coli K91Kan cells (overnight culture) and incubated at 37° C. for 10 min. Subsequently, 3 ml of top agarose was added and the samples were plated for plaques. One hundred microliters of the collected portal blood was added to 100 μl of E. coli K91Kan. Five milliliters of LB medium was then added and the samples were incubated at 37° C. overnight in a rotating microbial incubator. The E. coli was removed by centrifugation and the amplified phage supernatant samples were either titered directly or were PEG-precipitated, resuspended in TBS and titered. Following titration of the amplified phage, samples containing phage from each set of animals were combined, adjusting the titer of each sample to the same titer, and were plated for plaques on LB agar lates (22 cm^2 square plates). Either 12,000 or 24,000 phage were lated for plaques.
Thirty microliters of the collected systemic blood (neat and 10^−2, 10^−1, 10^−6 dilutions) was added to E. coli K91Kan cells, incubated at 37° C. for 10 min. Three ml of top agarose was then added and the samples were plated for plaques. One hundred microliters of the collected systemic blood was added to 100 μl of E. coli K91Kan, incubated at 37° C. for 10 min. Five milliliters of LB medium was then added and the samples were incubated at 37° C. overnight in a rotating microbial incubator. The E. coli was removed by centrifugation and the amplified phage supernatant samples were either titered directly or were PEG-precipitated, resuspended in TBS and titered. Following titration of the amplified phage, samples containing phage from each set of animals were combined, adjusting the titer of each sample to the same titer, and were plated for plaques on LB agar plates (22 cm^2 square plates). Either 12,000 or 24,000 phage were plated for plaques.
The intestinal tissue portion used in each closed loop was excised. […] Alternatively, the tissue (in PBS supplemented with protease inhibitors) was homogenized in an Ultra Thorex homogenizer, washed 3 times in PBS containing protease inhibitors and resuspended in PBS containing protease inhibitors (Int-G samples). In each case, serial dilutions (neat and 10^−2, 10^−4, 10^−6 dilutions) of the tissue homogenate was titered in E. coli.
The phage amplified from the portal blood, systemic blood and intestinal tissue was plated for plaques. […] The filters were air-dried, and the DNA was cross-linked to the filter (UV crosslinking: 2 min, high setting). The filters were incubated in pre-hybridization buffer (6×SSC, 5× Denhardt's solution, 0.1% SDS, […] yeast tRNA) at 40° C.–45° C. for at least 60 min.
Synthetic oligonucleotides, (22-mers), complimentary to regions coding for the receptor or binding sites used to create the preselected phage library, were synthesized (see Table 14 below).

[2] = tested on: P100 membrane fraction of Caco-2 cells; experiment: Dansylated peptide ELISA: relative binding of PAX2 and HAX42 peptides to P100 fractions (ratio to ZElan021); details: PAX2 peptides, ratio to ZElan021 = 1.00
Outline: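 Plates coated overnight at 4 °C with Caco-2 P100 membrane fraction (normally 100 μg/ml, pH 9.6) and blocked with 2% Marvel/PBS were incubated with dansylated peptides. Binding was detected with anti-mouse λ-HRP and TMB, read at 650 nm, and expressed relative to ZElan021.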

[3] = target: bovine serum albumin (bovine) (UniProt P02769); experiment: phage ELISA on coated BSA
Chain of bovine serum albumin (bovine) (P02769 25-607 limits assumed): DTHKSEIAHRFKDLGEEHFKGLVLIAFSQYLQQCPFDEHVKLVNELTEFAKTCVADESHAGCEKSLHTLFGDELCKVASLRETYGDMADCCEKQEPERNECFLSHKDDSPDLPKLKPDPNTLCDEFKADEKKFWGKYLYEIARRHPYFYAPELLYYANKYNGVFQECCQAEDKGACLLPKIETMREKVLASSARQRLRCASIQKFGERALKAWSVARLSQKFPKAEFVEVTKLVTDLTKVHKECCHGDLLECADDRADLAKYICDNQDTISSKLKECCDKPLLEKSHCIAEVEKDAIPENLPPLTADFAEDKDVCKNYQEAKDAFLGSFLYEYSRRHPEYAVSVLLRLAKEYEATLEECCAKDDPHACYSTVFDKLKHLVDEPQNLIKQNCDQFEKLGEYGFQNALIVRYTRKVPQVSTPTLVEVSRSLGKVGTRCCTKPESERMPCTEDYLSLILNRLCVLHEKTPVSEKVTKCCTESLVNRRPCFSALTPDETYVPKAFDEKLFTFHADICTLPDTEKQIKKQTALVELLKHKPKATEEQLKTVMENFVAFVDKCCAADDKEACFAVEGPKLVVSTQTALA

[4] = target: T1, recombinant hPEPT1 receptor domain …; experiment: phage ELISA on coated hPEPT1
Experimental: (§1) 6.6. Receptor ELISA Procedure 96 well plates were coated overnight with GIT receptor, BSA and, optionally, IDE (insulin degrading enzyme, an irrelevant His-fusion protein)or hTF. The plates were blocked for one hour with 0.5% BSA-PBS. After clarification, the amplified phage were diluted 1:100 in 1% BSA plus 0.05% Tween 20 in PBS and added to the plates. Following incubation of the plates on a rotator for 1 to 2 hours, the plates were washed 5 times with 1% BSA plus 0.05% Tween 20 in PBS. […] After the plates were washed 5 times, as described above, TMB substrate was added to the wells. The plates were read at 650 nm absorbance.

[5] = target: T1, recombinant hPEPT1 receptor domain …; experiment: phage ELISA, OD on hPEPT1 over OD on BSA
Experimental: as §1

Row | Molecule | OD [3] [OD 650 nm] | further results
1 | STPPSREAYSRPYSVDSDSDTNAKHSSHNRRLRTRSRPN (not fully specified) [PAX2] |  | Presence in the portal or systemic circulation ([1]; HPT1 pool, PAX2 used at 4x concentration): found in the portal and systemic circulation; Binding to / presence in the intestine samples ([1]; hPEPT1 pool): not found; Presence in the portal circulation ([1]; hPEPT1 pool): found
2 | CC(C)C[C@H](NC(=O)[C@H](CCCNC(=N)N)NC(=O)[C@H](CCCNC(=N)N)NC(=O)[C@H](CC(N)=O)NC(=O)[C@H](Cc1c[nH]cn1)NC(=O)[C@H](CO)NC(=O)[C@H](CO)NC(=O)[C@@H](N)CCCCNS(=O)(=O)c1cccc2c(N(C)C)cccc12)C(=O)N[C@@H](C)C(=O)N[C@H](C(=O)N[C@@H](CCCNC(=N)N)C(N)=O)[C@@H](C)O [ZElan080] (H-K(Dansyl)SSHNRRLATR-NH2) |  | Binding value at 20 μg/ml ([2]; 20 μg/ml, first column): 0.23; Binding value at 50 μg/ml (Jackson Ab) ([2]; 50 μg/ml, Jackson Ab): 0.67; Binding value at 50 μg/ml (Southern Ab) ([2]; 50 μg/ml, Southern Ab): 0.38; Binding value at 50 μg/ml ([2]; 50 μg/ml, first column): 0.84; Binding value at 50 μg/ml ([2]; 50 μg/ml, second column): 0.45
3 | B1 | 0.095 | OD [4]: 0.514 OD 650 nm; PEPT1/BSA [5]: 5 ratio
4 | RVGQCTDSDVRRPWARSCAHQGCGAGTRNSHGCITRPLRQASAH [phage SNi10] | 0.051 | 
5 | SHSGGMNRAYGDVFRELRDRWNATSHHTRPTPQLPRGPN [phage SNi28] | 0.113 | 
6 | SPCGGSWGRFMQGGLFGGRTDGCGAHRNRTSASLEPPSSDY [phage SNi34] | 0.115 | 
7 | RSGAYESPDGRGGRSYVGGGGGCGNIGRKHNLWGLRTASPACWD [phage S15] | 0.053 | 
8 | RGAADQRRGWSENLGLPRVGWDAIAHNSYTFTSRRPRPP [phage SNi38] | 0.076 | 
9 | SGGEVSSWGRVNDLCARVSWTGCGTARSARTDNKGFLPKHSSLR [phage SNi45] | 0.056 | 
10 | B2 | 0.065 | 
11 | B3 | 0.056 | 
12 | SPKLSSVGVMTKVTELPTEGPNAISIPISATLGPRNPLR (also: displayed as N-terminal pIII fusion on M13 phage) [phage SNiAX8] | 0.068 | 
13 | RWCGAELCNSVTKKFRPGWRDHANPSTHHRTPPPSQSSP [phage DAB3] | 0.072 | 
14 | RWCGADDPCGASRWRGGNSLFGCGLRCSAAQSTPSGRIHSTSTS [phage DAB7] | 0.09 | 
15 | SKSGEGGDSSRGETGWARVRSHAMTAGRFRWYNQLPSDR [phage DAB10] | 0.153 | 
16 | RSSANNCEWKSDWMRRACIARYANSSGPARAVDTKAAP [phage DAB18] | 0.085 | 
17 | SKWSWSSRWGSPQDKVEKTRAGCGGSPSSTNCHPYTFAPPPQAG [phage DAB24] | 0.441 | 
18 | SGFWEFSRGLWDGENRKSVRSGCGFRGSSAQGPCPVTPATIDKH [phage DAB30] | 0.121 | 
19 | SESGRCRSVSRWMTTWQTQKGGCGSNVSRGSPLDPSHQTGHATT [phage DAX15] | 0.101 | 
20 | REWRFAGPPLDLWAGPSLPSFNASSHPRALRTYWSQRPR [phage DAX23] | 0.153 | 
21 | RMEDIKNSGWRDSCRWGDLRPGCGSRQWYPSNMRSSRDYPAGGH [phage DAX24] | 0.118 | 
22 | SHPWYRHWNHGDFSGSGQSRHTPPESPHPGRPNATI [phage DAX27] | 0.424 | 
23 | SGRTTSEISGLWGWGDDRSGYGWGNTLRPNYIPYRQATNRHRYT [phage DCX26] | 0.213 | 
24 | RWNWTVLPATGGHYWTRSTDYHAINNHRPSIPHQHPTPI [phage DCX33] | 0.103 | 
25 | SSSSDWGGVPGKVVRERFKGRGCGISITSVLTGKPNPCPEPKAA [phage S22] | 0.061 | 
26 | SVGNDKTSRPVSFYGRVSDLWNASLMPKRTPSSKRHDDG [phage DCX45] | 0.075 | 
27 | RTFENDGLGVGRSIQKKSDRWYASHNIRSHFASMSPAGK (peptide, not shown: large carriers) [phage PAX14] | 0.139 | 
28 | SWTRWGKHTHGGFVNKSPPGKNATSPYTDAQLPSDQGPP (peptide, not shown: large carriers) [phage PAX16] | 0.171 | 
